Test results as given in US11833164B2, “Methods of treating Fabry disease in patients having a mutation in the GLA gene” (Amicus Therapeutics, Inc., priority 2019, dated 2023).
Positions count from the first letter of the chain named. Names and notes keep the numbering of the source.

B1: S102A (protein)
chain: MQLRNPELHLGCALALRFLALVSWDIPGARALDNGLARTPTMGWLHWERFMCNLDCQEEPDSCISEKLFMEMAELMVSEGWKDAGYEYLCIDDCWMAPQRDAEGRLQADPQRFPHGIRQLANYVHSKGLKLGIYADVGNKTCAGFPGSFGYYDIDAQTFADWGVDLLKFDGCYCDSLENLADGYKHMSLALNRTGRSIVYSCEWPLYMWPFQKPNYTEIRQYCNHWRNFADIDDSWKSIKSILDWTSFNQERIVDVAGPGGWNDPDMLVIGNFGLSWNQQVTQMALWAIMAAPLFMSNDLRHISPQAKALLQDKDVIAINQDPLGKQGYQLRQGDNFEVWERPLSGLAWAVAMINRQEIGGPRSYTIAVASLGKGVACNPACFITQLLPVKRKLGFYEWTSRLRSHINPTGTVLLQLENTMQMSLKDLL
B2: G104D (protein)
chain: B1 chain with A102S, G104D
B3: G104S (protein)
chain: B1 chain with A102S, G104S
B4: S102P (protein)
chain: B1 chain with A102P
B5: S102T (protein)
chain: B1 chain with A102T
B6: R105G (protein)
chain: B1 chain with A102S, R105G
B7: G104A (protein)
chain: B1 chain with A102S, G104A

System: mutant form of α-Gal A expressed in HEK-293 cells
Assay: HEK assay (GLP HEK / Migalastat Amenability Assay): α-Gal A activity in lysates of transiently transfected HEK-293 cells incubated with or without 10 μM migalastat
Type: cell-based, human
Details: 10 μM migalastat versus baseline
Experimental: Such mutations or variants are also referred to herein as “HEK assay amenable” mutations or variants.
The α-Gal A activity is expressed as the nmoles of free 4-MU released per milligram of protein per hour (nmol/mg/hr).
In Table 7, values for the mean±standard error of the mean (SEM) were calculated. nmol/mg/hr indicates “nmoles of free 4-MU released per mg of protein per hour”. WT indicates “wild-type”. NC indicates “not calculable”. N/A indicates “not applicable”.

First: B1
Second: B2
The “Absolute increase (% WT)” value of the first is lower: 27.3 % WT for the first, 30.5 % WT for the second.

Compared with B3, B4 is lower in “Absolute increase (% WT)” value: 52.0 % WT for the first, 22.3 % WT for the second.

Compared with B5, B6 is lower in “Absolute increase (% WT)” value: 20.5 % WT for the first, 15.3 % WT for the second.

B7 was tested, and the “Absolute increase (% WT)” value was 40.4 % WT.

Same assay, conditions: 10 μM migalastat α-Gal A activity relative to baseline

Compared with B1, B2 is higher in Relative increase: 1.6 for the first, 1.8 for the second.

First: B3
Second: B4
The Relative increase of the first is higher: 3.9 for the first, 1.3 for the second.

Going from B5 to B6, the Relative increase rises from 1.3 to 1.4.

For B7, the Relative increase was 3.7.

Same assay, conditions: 10 μM migalastat, 5 days; percentage of baseline wild-type α-Gal A activity; mean ± SEM

B1 and B2 are within error of each other in “10 μM migalastat α-Gal A activity (% WT)” value: 69.9 ± 5.1 % WT for the first, 69.8 ± 4.7 % WT for the second.

Going from B3 to B4, the “10 μM migalastat α-Gal A activity (% WT)” value rises from 69.8 ± 5.8 % WT to 91.7 ± 5 % WT.

First: B5
Second: B6
The “10 μM migalastat α-Gal A activity (% WT)” value of the first is higher: 76.9 ± 6.2 % WT for the first, 53.3 ± 3.5 % WT for the second.

B7 was tested, and the “10 μM migalastat α-Gal A activity (% WT)” value was 55.2 ± 3 % WT.

Same assay, conditions: absence of migalastat; percentage of baseline wild-type α-Gal A activity; mean ± SEM

B1 and B2 are within error of each other in “Baseline α-Gal A activity (% WT)” value: 42.6 ± 3.5 % WT for the first, 39.3 ± 2.6 % WT for the second.

First: B3
Second: B4
The “Baseline α-Gal A activity (% WT)” value of the first is lower: 17.9 ± 1.8 % WT for the first, 69.4 ± 3.4 % WT for the second.

Compared with B5, B6 is lower in “Baseline α-Gal A activity (% WT)” value: 56.4 ± 5.2 % WT for the first, 38 ± 2.1 % WT for the second.

In the case of B7, the “Baseline α-Gal A activity (% WT)” value is reported as 14.8 ± 1 % WT.

Same assay, conditions: lysates of HEK-293 cells transfected with the mutant form, incubated 5 days in the absence of migalastat; mean ± SEM

Compared with B1, B2 is lower in “Baseline α-Gal A activity” value: 17330 ± 2084 nmol/mg/h for the first, 14123 ± 1096 nmol/mg/h for the second.

Compared with B3, B4 is higher in “Baseline α-Gal A activity” value: 5720 ± 464 nmol/mg/h for the first, 27252 ± 1778 nmol/mg/h for the second.

Compared with B5, B6 is lower in “Baseline α-Gal A activity” value: 22123 ± 2319 nmol/mg/h for the first, 16513 ± 681 nmol/mg/h for the second.

With B7 the “Baseline α-Gal A activity” value was 5271 ± 397 nmol/mg/h.

Same assay, conditions: lysates of HEK-293 cells transfected with the mutant form, incubated 5 days with 10 μM migalastat; mean ± SEM

B1 and B2 are within error of each other in “10 μM migalastat α-Gal A activity” value: 26790 ± 1958 nmol/mg/h for the first, 24797 ± 1771 nmol/mg/h for the second.

Going from B3 to B4, the “10 μM migalastat α-Gal A activity” value rises from 22242 ± 1000 nmol/mg/h to 35885 ± 2754 nmol/mg/h.

Going from B5 to B6, the “10 μM migalastat α-Gal A activity” value falls from 29662 ± 2559 nmol/mg/h to 22993 ± 1042 nmol/mg/h.

With B7 the “10 μM migalastat α-Gal A activity” value was 19670 ± 1202 nmol/mg/h.
